One may read the Kd as the constant that tells how readily two partners part at equilibrium. Higher therefore signals weaker binding.

First the molecules themselves.
T1: EsCas13d, nuclease-dead (Eubacterium siraeum, UniProt B0MS50, R295A;H300A;R849A;H854A)
T1 sequence: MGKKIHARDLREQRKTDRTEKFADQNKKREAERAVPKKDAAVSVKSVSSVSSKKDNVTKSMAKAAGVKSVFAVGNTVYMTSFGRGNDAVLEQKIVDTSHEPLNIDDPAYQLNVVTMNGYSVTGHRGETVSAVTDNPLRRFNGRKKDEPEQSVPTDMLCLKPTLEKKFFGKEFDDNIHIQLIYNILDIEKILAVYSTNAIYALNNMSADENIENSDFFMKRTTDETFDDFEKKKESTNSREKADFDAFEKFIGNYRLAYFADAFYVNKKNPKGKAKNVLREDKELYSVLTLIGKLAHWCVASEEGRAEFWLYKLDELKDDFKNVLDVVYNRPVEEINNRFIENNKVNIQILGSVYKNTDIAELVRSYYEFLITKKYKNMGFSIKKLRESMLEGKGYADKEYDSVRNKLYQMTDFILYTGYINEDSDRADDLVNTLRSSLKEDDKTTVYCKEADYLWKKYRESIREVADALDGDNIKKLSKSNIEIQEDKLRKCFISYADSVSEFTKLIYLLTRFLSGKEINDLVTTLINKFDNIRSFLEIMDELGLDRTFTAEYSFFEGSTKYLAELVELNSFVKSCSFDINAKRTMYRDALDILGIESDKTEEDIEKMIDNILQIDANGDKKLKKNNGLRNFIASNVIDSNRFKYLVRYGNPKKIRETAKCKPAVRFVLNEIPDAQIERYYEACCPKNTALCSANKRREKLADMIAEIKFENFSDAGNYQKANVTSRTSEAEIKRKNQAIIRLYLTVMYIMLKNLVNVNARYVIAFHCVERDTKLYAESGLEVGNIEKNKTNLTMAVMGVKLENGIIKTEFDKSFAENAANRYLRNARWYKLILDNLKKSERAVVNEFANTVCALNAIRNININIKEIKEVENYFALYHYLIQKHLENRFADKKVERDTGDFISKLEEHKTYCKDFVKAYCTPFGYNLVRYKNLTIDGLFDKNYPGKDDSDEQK

B1: target 2 MT 5'PFS UUU 3'PFS UAC (mixed)
RNA 1: CACCCGUGCAAAAUUGCAGGGGUCUAAAACCUUCUCCAAAUUGUUUCAUCCU
RNA 2: GGGAAUGGAUCCACAUCUACGAAUUCUUUAGGAUGAAACAAUUUGGAGAAGUACAGAUCGGAAGAGCACACGU
B2: target 2 MT 5'PFS UUG 3'PFS AGA (mixed)
RNA 1: CACCCGUGCAAAAUUGCAGGGGUCUAAAACCUUCUCCAAAUUGUUUCAUCCU
RNA 2: GGGAAUGGAUCCACAUCUACGAAUUCUUGAGGAUGAAACAAUUUGGAGAAGAGAAGAUCGGAAGAGCACACGU
B3: target 2 MT 5'PFS AAA 3'PFS CGC (mixed)
RNA 1: CACCCGUGCAAAAUUGCAGGGGUCUAAAACCUUCUCCAAAUUGUUUCAUCCU
RNA 2: GGGAAUGGAUCCACAUCUACGAAUUCAAAAGGAUGAAACAAUUUGGAGAAGCGCAGAUCGGAAGAGCACACGU
B4: target 2 MT 5'PFS AUU 3'PFS UGU (mixed)
RNA 1: CACCCGUGCAAAAUUGCAGGGGUCUAAAACCUUCUCCAAAUUGUUUCAUCCU
RNA 2: GGGAAUGGAUCCACAUCUACGAAUUCAUUAGGAUGAAACAAUUUGGAGAAGUGUAGAUCGGAAGAGCACACGU
B5: target 2 MT 5'PFS UUG 3'PFS AGU (mixed)
RNA 1: CACCCGUGCAAAAUUGCAGGGGUCUAAAACCUUCUCCAAAUUGUUUCAUCCU
RNA 2: GGGAAUGGAUCCACAUCUACGAAUUCUUGAGGAUGAAACAAUUUGGAGAAGAGUAGAUCGGAAGAGCACACGU
B6: target 2 MT 5'PFS UUU 3'PFS UAA (mixed)
RNA 1: CACCCGUGCAAAAUUGCAGGGGUCUAAAACCUUCUCCAAAUUGUUUCAUCCU
RNA 2: GGGAAUGGAUCCACAUCUACGAAUUCUUUAGGAUGAAACAAUUUGGAGAAGUAAAGAUCGGAAGAGCACACGU
B7: target 2 MT 5'PFS CGA 3'PFS CUC (mixed)
RNA 1: CACCCGUGCAAAAUUGCAGGGGUCUAAAACCUUCUCCAAAUUGUUUCAUCCU
RNA 2: GGGAAUGGAUCCACAUCUACGAAUUCCGAAGGAUGAAACAAUUUGGAGAAGCUCAGAUCGGAAGAGCACACGU
B8: target 2 MT 5'PFS UUU 3'PFS UAU (mixed)
RNA 1: CACCCGUGCAAAAUUGCAGGGGUCUAAAACCUUCUCCAAAUUGUUUCAUCCU
RNA 2: GGGAAUGGAUCCACAUCUACGAAUUCUUUAGGAUGAAACAAUUUGGAGAAGUAUAGAUCGGAAGAGCACACGU
B9: target 2 MT 5'PFS UUG 3'PFS AGG (mixed)
RNA 1: CACCCGUGCAAAAUUGCAGGGGUCUAAAACCUUCUCCAAAUUGUUUCAUCCU
RNA 2: GGGAAUGGAUCCACAUCUACGAAUUCUUGAGGAUGAAACAAUUUGGAGAAGAGGAGAUCGGAAGAGCACACGU
B10: target 2 MT 5'PFS AAA 3'PFS CGA (mixed)
RNA 1: CACCCGUGCAAAAUUGCAGGGGUCUAAAACCUUCUCCAAAUUGUUUCAUCCU
RNA 2: GGGAAUGGAUCCACAUCUACGAAUUCAAAAGGAUGAAACAAUUUGGAGAAGCGAAGAUCGGAAGAGCACACGU
B11: target 2 MT 5'PFS AAU 3'PFS UGU (mixed)
RNA 1: CACCCGUGCAAAAUUGCAGGGGUCUAAAACCUUCUCCAAAUUGUUUCAUCCU
RNA 2: GGGAAUGGAUCCACAUCUACGAAUUCAAUAGGAUGAAACAAUUUGGAGAAGUGUAGAUCGGAAGAGCACACGU
B12: target 2 MT 5'PFS UUG 3'PFS AGC (mixed)
RNA 1: CACCCGUGCAAAAUUGCAGGGGUCUAAAACCUUCUCCAAAUUGUUUCAUCCU
RNA 2: GGGAAUGGAUCCACAUCUACGAAUUCUUGAGGAUGAAACAAUUUGGAGAAGAGCAGAUCGGAAGAGCACACGU
B13: target 1 insA 3' of 17,insU 3' of 9 (mixed)
RNA 1: CACCCGUGCAAAAAUGCAGGGGUCUAAAACUGAGCGGAUAACCUCUCUAUGG
RNA 2: GGGAAUGGAUCCACAUCUACGAAUUCGUACCAUAGAAGAGGUUAUUCCGCUCACCGAGAUCGGAAGAGCACACGU

This data set concerns the target T1, EsCas13d, nuclease-dead. The experiment in a line: crRNA (strand 1, pre-loaded); Mg2+; 40 mM Tris-HCl pH 7.5, 150 mM NaCl, 6 mM MgCl2, 1 mM DTT, 0.1% Tween-20, 0.2 mg/ml BSA; 25 C; 10 min per concentration, then washed. Particulars: tags: His6-TwinStrep-SUMO cleaved; N-terminal SNAP kept (SNAP-Surface 488); label: 3' end held by stalled T7 RNA polymerase.
In turn, B1 showed a Kd of 9.1 ± 1.2 nM. For B2 the value was 7.9 ± 0.5 nM. Under B3 stands 3.3 ± 1 nM. As to B4, the Kd is 13.5 ± 1.7 nM. This Kd lies about 4.1-fold higher than the previous one. Under B5 stands 14.5 ± 2.2 nM. The molecule B6 had a Kd of 10.9 ± 1.7 nM. B7 came in with an equilibrium dissociation constant (Kd) of 9.3 ± 1.8 nM. For B8 the value was 8.4 ± 0.9 nM; for B9, 14.1 ± 1.5 nM; for B10, 3.4 ± 0.8 nM. For B11 the value was 9.1 ± 1.4 nM; for B12, 13.7 ± 2 nM; for B13, 18.6 ± 3.3 nM.

(Values after article PMC10786891, “Massively parallel profiling of RNA-targeting CRISPR-Cas13d”.)
